According to patent US20110212476A1:

Molecular target: Gαi1 R178M/A326S (human)
Assay: cell-based or functional assay

Chain of Gαi1 R178M/A326S (human) (B2RSH2 2-354 R178M/A326S): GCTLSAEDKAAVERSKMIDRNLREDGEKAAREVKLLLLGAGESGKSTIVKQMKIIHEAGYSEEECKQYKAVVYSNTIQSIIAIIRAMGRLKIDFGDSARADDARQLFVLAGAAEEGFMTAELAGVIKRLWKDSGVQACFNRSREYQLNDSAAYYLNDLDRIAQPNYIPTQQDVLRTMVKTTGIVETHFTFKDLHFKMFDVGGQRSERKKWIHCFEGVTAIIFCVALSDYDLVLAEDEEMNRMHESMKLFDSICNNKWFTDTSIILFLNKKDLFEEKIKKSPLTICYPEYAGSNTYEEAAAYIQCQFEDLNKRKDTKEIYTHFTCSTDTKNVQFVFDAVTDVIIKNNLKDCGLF

B1: RGS21 (wild type RGS domain) (protein)
chain: NMDTLLANQAGLDAFRIFLKSEFSEENVEFWLACEDFKKTKNADKIASKAKMIYSEFIEADAPKEINIDFGTRDLISKNIAEPTLKCFDEAQKLIYCLMAKDSFPRFLKSEIYKKLV
stimulation of GTPase activity: 8.8 fold
